The record followed here is publication PMC3025356, “Mechanism of the Ca^2+-Dependent Interaction between S100A4 and Tail Fragments of Nonmuscle Myosin Heavy Chain IIA” (Journal of Molecular Biology, 2011).

For test [1], the target named is T1, S100A4 (Homo sapiens, UniProt P26447).
T1 construct: We used full-length S100A4 for this analysis; made in house; host or cells: Escherichia coli BL21(DE3)
Kind of test: Competition of M32/M16^N with M200 for S100A4 (turbidity). To be noted: turbidity competition. It counts as biochemical. On the procedure:
Fig. 9 Dissociation of M200 filaments by S100A4. (a) Initially, M200 was added (i) from a concentrated stock in 0.5 M NaCl to give a final concentration of 5 μM M200 (with respect to the polypeptide chain) in 100 mM NaCl, 10 mM Hepes, and 0.1 mM Ca^2+ at pH 7.5 and 20 °C. A biphasic rise in turbidity was recorded for 200 s (continuous line). Then 10 μM S100A4 (with respect to monomer concentration) was added (ii), followed by 0.2 mM EGTA (iii) and 1 mM Ca^2+ (iv). […] (b) M200 was diluted (i) into 100 mM NaCl to form filaments as in (a), then 5 μM S100A4 was added (ii), causing a 54% drop in turbidity. A further 5 μM S100A4 (iii) caused turbidity to fall to almost zero. (c) Stopped-flow records monitoring the dissociation of 5 μM M200 filaments on jumping [NaCl] from 100 mM to 120 mM NaCl. Other components of the buffer were 20 mM Hepes, 1 mM Mg^2+, and 100 μM Ca^2+ at pH 7.5 and 20 °C. […] In the presence of 20 μM S100A4 (lower trace), the turbidity decreased by 87% with a rate constant of 0.2 s^− 1.
Further information on Scheme 2 was obtained from competition assays. […] An independent estimate of K5 based on the Ca^2+ dependence of the turbidity assay yielded a value of 0.003 μM (see Supplementary Data).
The decrease in fluorescence, […]
that F-M16N binding was slightly faster. […]
A second estimate was calculated from the apparent Ca2+ binding constant observed in the turbidity assay […]

In test [2] the target is T1, S100A4. Kind of test: Quin-2 fluorescence, Ca^2+ dissociation from S100A4 in the presence of target peptides. The test is classed as binding. The method, then:
Ca^2+ dissociation measurements for wild-type S100A4, using Quin-2 as described above, were repeated as a control for the effect of target peptides on this process. On mixing 10 μM S100A4 in the presence of Ca^2+ with 100 μM Quin-2, the observed profile was fitted to a single exponential with kobs = 17 s^− 1 (Fig. 5a; cf. k− 1 in Scheme 1).
Fig. 5 Dissociation of Ca^2+ from S100A4 in the absence and in the presence of target peptides monitored using Quin-2 fluorescence. (a) Mixed with 100 μM Quin-2 was 10 μM S100A4 + 50 μM Ca^2+ (stopped-flow reaction chamber concentrations). A superposed fit to a single exponential yields kobs = 17 s^− 1. […] (d) As in (a), but with 2.5 μM M200 premixed with 5 μM S100A4. A biphasic exponential fit yielded rate constants of 13 s^− 1 (A = 26%) and 0.30 s^− 1 (A = 74%). […] Experiments were carried out in either 20 mM NaCl, 20 mM Tris, 1 mM DTT, and 100 μM Ca^2+ at pH 7.5 and 20 °C (a and b; cf. Malashkevich et al.[17]), or 100 mM NaCl, 10 mM Hepes, and 100 μM Ca^2+ at pH 7.5 and 20 °C (c and d). […] Rate constants were unaffected by the inclusion of 1 mM Mg^2+.
Stopped-flow measurements were carried out using an SX18-MV apparatus (Applied Photophysics Ltd., Leatherhead, UK) with a dead time of 1.5 ms.[40] Records were generally captured on a logarithmic time base. Absorption (turbidity) measurements were usually recorded using a 10-mm pathlength, while fluorescence was recorded with a 2-mm pathlength for excitation and emission. The stated concentrations of components refer to the reaction chamber after mixing, unless otherwise indicated. Tyrosine fluorescence was excited at 280 nm, and the emission was collected through a UG11 bandpass filter plus a 305-nm longpass filter.[18] Fluorescein fluorescence was excited at 480 nm, and the emission was detected through a 515-nm longpass filter. Quin-2 fluorescence was measured by excitation at 336 nm, and emission was collected with a 455-nm longpass filter. For simultaneous recording of light scatter, a second channel was monitored through a UG11 filter. Rate constants were obtained by fitting to single-exponential or double-exponential functions using Kaleidagraph (Synergy Software) or Applied Photophysics Pro-Data software. Modeling of kinetic schemes was performed using Berkeley Madonna software.

Setting [3] is: 2.5 μM M200 premixed with 5 μM S100A4.

T1 sequence (P26447 whole entry): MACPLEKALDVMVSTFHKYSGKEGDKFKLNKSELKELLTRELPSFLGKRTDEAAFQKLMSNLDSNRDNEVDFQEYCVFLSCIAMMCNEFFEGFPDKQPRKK

B1: M200: His-tagged human NM-MHC IIA residues Q1761-E1960, V1913I substitution (protein, UniProt P35579 1761-1960, looked up, variant V1913I)
chain: QINTDLNLERSHAQKNENARQQLERQNKELKVKLQEMEGTVKSKYKASITALEAKIAQLEEQLDNETKERQAACKQVRRTEKKLKDVLLQVDDERRNAEQYKDQADKASTRLKQLKRQLEEAEEEAQRANASRRKLQRELEDATETADAMNREISSLKNKLRRGDLPFVVPRRMARKGAGDGSDEEVDGKADGAEAKPAE
modifications: His tag
notes: His-tagged human NM-MHC IIA residues Q1761-E1960, V1913I substitution
For the molecule B1, the “binding relative to M32” value in test [1] was 3 orders of magnitude tighter than M32. Moreover, in test [2] (setting [3]), the fast-phase amplitude amounted to 26% and the slow-phase amplitude is 74%. For the same molecule, the slow-phase rate constant in test [2] (2.5 μM M200 premixed with 5 μM S100A4, 100 mM NaCl) was 0.30 s^− 1. The fast-phase rate constant in test [2] (2.5 μM M200 premixed with 5 μM S100A4, 100 mM NaCl, 10 mM Hepes, 100 μM Ca^2+, pH 7.5, 20 °C) came out at 13 s^− 1. The “slower release of Ca^2+” value in test [2] (in presence of coiled-coil fragments) is 0.3–0.5 s^− 1. The “Ca^2+ dissociation rate constant from complex (k− 3), comparison” value in test [2] (peptide–S100A4–Ca^2+ complex) is listed as 0.3 s^− 1.
